According to US20260132207A1 (ACCELERON PHARMA, published 2026):
Residue numbers refer to the chain shown, from its start.

B1: M01 (antibody, V domains shown)
VH: EVQLLESGGGLVQPGGSLRLSCAASGFTFGSYGMTWVRQAPGKGLEWVSVISGSGGGTYYADSVKGRFTISRDNSKNTLYLQMNSLRAEDTAVYYCAKGPRVVGMDVWGQGTTVTVSS
VL: DIQMTQSPSSVSASVGDRVTITCRASQGISSWLAWYQQKPGKAPKLLIYAASSLQSGVPSRFSGSGSGTDYTLTISSLQPEDFATYYCQQVFSYPLTFGGGTKVEIK
notes: Optimized human IgG; It was captured through its Fc on an anti-hFc IgG chip; also called M01 antibody; mAB M01
B2: P01 (antibody, V domains shown)
VH: EVQLLESGGGLVQPGGSLRLSCAASGFTFSSYAMSWVRQAPGKGLEWVSAISGSGGSTSYADSVKGRFTISRDNSKNTLYLQMNSLRAEDTAVYYCARLPQYSRPFDYWGQGTLVTVSS
VL: B1 VL with Y71F, V91G, F92H, Y94F
notes: Naive human IgG; also called P01 antibody; mAB P01
B3: J01 (antibody, V domains shown)
VH: QVQLVQSGAEVKKPGASVKVSCKASGYTFTSYRMHWVRQAPGQGLEWMGFIVPSGGSTSYAQKFQGRVTMTRDTSTSTVYMELSSLRSEDTAVYYCARVSRYAPEPMDVWGQGTTVTVSS
VL: B1 VL with S31R, Y71F, V91A, Y94H, L96W
notes: also called J01 antibody; mAB J01
B4: K01 (antibody, human IgG1, kappa, V domains shown)
VH: QLQLQESGPGLVKPSETLSLTCTVSGGSISSSSYYWGWIRQPPGKGLEWIGSISYSGSTYYNPSLKSRVTISVDTSKNQFSLKLSSVTAADTAVYYCARDSLRYGMDVWGQGTTVTVSS
VL: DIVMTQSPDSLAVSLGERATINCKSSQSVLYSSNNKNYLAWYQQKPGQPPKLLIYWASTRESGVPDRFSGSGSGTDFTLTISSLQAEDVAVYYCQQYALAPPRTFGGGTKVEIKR
notes: Naive human IgG from a yeast library; It was captured on an anti-hFc IgG chip in the SPR assay; also called K01 antibody; mAB K01
B5: N01 (antibody, human IgG1, kappa, V domains shown)
VH: B4 VH
VL: DIQMTQSPSTLSASVGDRVTITCRASQSIGSWLAWYQQKPGKAPKLLIYKASSLESGVPSRFSGSGSGTEFTLTISSLQPDDFATYYCQVYGSYSPRTFGGGTKVEIKR
notes: also called N01 antibody; mAB N01
B6: L01 (antibody, human IgG1, kappa, V domains shown)
VH: B4 VH
VL: EIVMTQSPATLSVSPGERATLSCRASQSVSSNLAWYQQKPGQAPRLLIYGASTRATGIPARFSGSGSGTEFTLTISSLQSEDFAVYYCQVYNVWPRTFGGGTKVEIKR
notes: Naive human IgG; also called L01 antibody; mAB L01

Legend:
dimeric hActRIIA [1] = molecular target: T1, dimeric hActRIIA (human, UniProt P27037 20-135); test: SPR (Biacore), 37 C, antibody captured on anti-hFc IgG chip, dimeric ActRIIA injected
T1 construct: also called ActRIIA DIMER; ActRIIA dimer
T1 sequence (P27037 20-135): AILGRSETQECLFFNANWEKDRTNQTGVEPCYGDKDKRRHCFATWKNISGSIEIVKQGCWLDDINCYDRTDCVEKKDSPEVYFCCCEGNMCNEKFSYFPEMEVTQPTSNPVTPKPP
Protocol: (§1) Kinetic characterization of J01, K01, L01, M01, N01, and P01 antibodies binding to monomeric and dimeric hActRIIB and hActRIIA was performed using standard BIACORE®-based analysis at 37° C. In brief, antibodies were captured on anti-hFclgG Biacore chips and different concentrations of dimeric and monomeric ActRIIB or ActRIIA were injected in duplicates over the captured antibody and control surface. To obtain kinetic rate constants the data were double referenced and fit to a 1:1 interaction model using BiaEvaluation software (GE Healthcare). The equilibrium binding constant KD was determined by the ratio of binding rate constants kd/kₐ

dimeric hActRIIB [2] = molecular target: T2, dimeric hActRIIB (human, UniProt Q13705 19-134); test: SPR (Biacore), 37 C, antibody captured on anti-hFc IgG chip, dimeric ActRIIB injected, 1:1 model
T2 construct: also called ActRIIB DIMER; ActRIIB dimer
T2 sequence (Q13705 19-134): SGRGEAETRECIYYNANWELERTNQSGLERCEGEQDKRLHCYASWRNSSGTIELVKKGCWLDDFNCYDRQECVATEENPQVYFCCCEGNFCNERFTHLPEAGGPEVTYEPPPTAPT
Protocol: as §1

monomeric hActRIIB [3] = molecular target: T3, monomeric hActRIIB (human, UniProt Q13705 19-134, limits assumed); test: SPR (Biacore), 37 C, antibody captured on anti-hFc IgG chip, monomeric ActRIIB injected, 1:1 model
T3 construct: also called ActRIIB MONOMER; ActRIIB monomer
T3 sequence (Q13705 19-134 limits assumed): as the sequence (Q13705 19-134) above
Protocol: as §1

dimeric hActRIIB [4] = molecular target: T2, dimeric hActRIIB; test: SPR (Biacore), 37 C, antibody captured on anti-hFc IgG chip, dimeric ActRIIB injected, KD = kd/ka
Protocol: as §1

monomeric hActRIIB [5] = molecular target: T3, monomeric hActRIIB; test: SPR (Biacore), 37 C, antibody captured on anti-hFc IgG chip, monomeric ActRIIB injected, KD = kd/ka
Protocol: as §1

monomeric hActRIIA [6] = molecular target: T4, monomeric hActRIIA (human, UniProt P27037 20-135, limits assumed); test: SPR (Biacore), 37 C, antibody captured on anti-hFc IgG chip, monomeric ActRIIA injected, 1:1 model
T4 construct: also called ActRIIA MONOMER; ActRIIA monomer
T4 sequence (P27037 20-135 limits assumed): as the sequence (P27037 20-135) above
Protocol: as §1

monomeric hActRIIA [7] = molecular target: T4, monomeric hActRIIA; test: SPR (Biacore), 37 C, antibody captured on anti-hFc IgG chip, monomeric ActRIIA injected, KD = kd/ka
Protocol: as §1

dimeric hActRIIA [8] = molecular target: T1, dimeric hActRIIA; test: SPR (Biacore), 37 C, antibody captured on anti-hFc IgG chip, dimeric ActRIIA injected, KD = kd/ka
Protocol: as §1

dimeric hActRIIA [9] = molecular target: T1, dimeric hActRIIA; test: SPR (Biacore), 37 C, antibody captured on anti-hFc IgG chip, dimeric ActRIIA injected, 1:1 model
Protocol: as §1

binding result (dimeric hActRIIA [1]) | koff (dimeric hActRIIB [2]) | kon (dimeric hActRIIB [2]) | koff (monomeric hActRIIB [3]) | kon (monomeric hActRIIB [3]) | Kd (dimeric hActRIIB [4]) | Kd (monomeric hActRIIB [5]) | koff (monomeric hActRIIA [6]) | kon (monomeric hActRIIA [6]) | Kd (monomeric hActRIIA [7]) | Kd (dimeric hActRIIA [8]) | koff (dimeric hActRIIA [9]) | kon (dimeric hActRIIA [9]) | Binder
no binding | 3.24e-05 s⁻¹ | 304000 M⁻¹ s⁻¹ | 8.72e-05 s⁻¹ | 1.16e+06 M⁻¹ s⁻¹ | 0.107 nM | 0.0755 nM |  |  |  |  |  |  | B1
no binding | 0.0145 s⁻¹ | 388000 M⁻¹ s⁻¹ |  |  | 37.4 nM |  |  |  |  |  |  |  | B2
 | 1.69e-05 s⁻¹ | 452000 M⁻¹ s⁻¹ | 0.00022 s⁻¹ | 1.05e+06 M⁻¹ s⁻¹ | 0.0374 nM | 0.209 nM | 0.00259 s⁻¹ | 828000 M⁻¹ s⁻¹ | 3.13 nM | 0.192 nM | 9.31e-05 s⁻¹ | 484000 M⁻¹ s⁻¹ | B3
no binding | 0.000683 s⁻¹ | 104000 M⁻¹ s⁻¹ | 0.00237 s⁻¹ | 148000 M⁻¹ s⁻¹ | 6.57 nM | 16 nM |  |  |  |  |  |  | B4
no binding | 0.000335 s⁻¹ | 182000 M⁻¹ s⁻¹ | 0.00769 s⁻¹ | 416000 M⁻¹ s⁻¹ | 1.84 nM | 18.5 nM |  |  |  |  |  |  | B5
no binding | 0.000365 s⁻¹ | 212000 M⁻¹ s⁻¹ | 0.0179 s⁻¹ | 921000 M⁻¹ s⁻¹ | 1.72 nM | 19.5 nM |  |  |  |  |  |  | B6
